Reference: paper PMC6135941

Target: 62 kDa active MMP-2
Assay: enzyme inhibition kinetics

Ki: 0.154 nM
Substance: TIMP-2-His6 Y90E expressed in HEK293H cells (from UniProt P16035 27-220) (natural protein)
